Data on one molecule can be found in US20120149028A1 (LUDWIG MAXIMILIANS UNIVERSITAT M NCHEN, published 2012).

The experiment concerns the target T1, endogenous PCNA (proliferating cell nuclear antigen) in HeLa cells (human (endogenous in HeLa cells), UniProt P12004 1-261).
T1 construct: whole, on cells; Intracellular (nuclear) endogenous protein in living or fixed HeLa cells, not on the surface
The experiment in a line: GFP fusion expressed in HeLa cells, epifluorescence microscopy. How it is done:
First, it was investigated, whether transiently expressed PCNA3p16-GFP colocalizes with RFP-PCNA or HcRedLigase, another S phase marker. To do so, HeLa cells were seeded on coverslips and transiently double transfected with expression vectors coding for RFP-PCNA or HcRed-Ligase and vector coding for PCNA-Chromobody PCNA3p16-GFP. 24 h after transfection cells were fixed in 4% PFA for 15 minutes at room temperature, permeabilized with 0,2% Triton-X-100 in PBS and the DNA was counterstained with DAPI. Slides were mounted in VectaShield and further analyzed by epifluorescence microscopy with appropriate filtersets for DAPI (D360_{—}40X/HQ460_{—}40M), GFP (HQ480_{—}40X/HQ535_{—}50M) and red fluorescent proteins (HQ565_{—}30X/HQ620_{—}60M) and an 63X/1.3 NA Plan Apo oil objective. As expected, RFP-PCNA as well as HcRed-Ligase localized to DNA replication sites in the nucleus of the cells. In both cases a colocalization of RFP-PCNA and HcRed-Ligase with the Chromobody PCNA3p16-GFP was detected (FIG. 3 A). […]
To confirm that PCNA3p16-GFP recognizes endogenous PCNA located at active DNA replication sites, an antibody staining against PCNA and a BrdU pulse-chase experiment were performed. […] The primary anti-PCNA antibody (clone 16D10) (1:400) was detected by a secondary antibody coupled to the fluorescent dye Alexa568. […]

T1 sequence (P12004 whole entry): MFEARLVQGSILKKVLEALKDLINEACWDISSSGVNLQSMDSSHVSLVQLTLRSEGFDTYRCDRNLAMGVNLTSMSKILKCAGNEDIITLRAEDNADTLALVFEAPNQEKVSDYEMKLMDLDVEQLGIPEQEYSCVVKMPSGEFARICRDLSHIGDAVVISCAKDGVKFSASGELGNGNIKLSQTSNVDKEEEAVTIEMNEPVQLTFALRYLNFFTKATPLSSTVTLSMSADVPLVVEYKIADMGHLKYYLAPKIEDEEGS

B1: variant PCNA-Chromobody of SEQ ID NO 18 fused to GFP (VHH)
VHH: NVQLNESGGGLVQPGGSLRLSCAASGFTFSSYAMSWVRQAPGKGLEWVSEISPSGAVKAYSDSVKGRFTISRDNAKNRLYLQMNSLTPEDTGEYFCTKVQSPRTRIPAPSSQGTQVTVSS
notes: Expressed in HeLa cells as a GFP fusion; not shown: linker and GFP
Consider B1, for which the binding result was “binds”.
